The results in this text go back to the Human Domainome abundance scans (Beltran et al. 2025).

± gives the uncertainty stated by the source.

First the molecules themselves.
B1: Triacylglycerol hydrolase DDHD2, residues 389 to 447; numbered along this chain, O94830 (parent)
chain: TLEEDLKKLQLSEFFDIFEKEKVDKEALALCTDRDLQEIGIPLGPRKKILNYFSTRKNS

In this series the parent is B1. Description: abundance fitness (aPCA) (normalised: wild type 0, dead -1); higher = more abundant; growth selection in yeast, the domain comes from the species named. As to conditions: Homo sapiens.
Consider TLTEDLKKLQLSEFFDIFEKEKVDKEALALCTDRDLQEIGIPLGPRKKILNYFSTRKNS [E3T], for which the abundance fitness is -0.705 ± 0.089.
In the case of TLWEDLKKLQLSEFFDIFEKEKVDKEALALCTDRDLQEIGIPLGPRKKILNYFSTRKNS [E3W] it was -0.16 ± 0.059.
In the case of TLYEDLKKLQLSEFFDIFEKEKVDKEALALCTDRDLQEIGIPLGPRKKILNYFSTRKNS [E3Y] it was -0.162 ± 0.1; in that of TLLEDLKKLQLSEFFDIFEKEKVDKEALALCTDRDLQEIGIPLGPRKKILNYFSTRKNS [E3L], -0.145 ± 0.058.
The result for TLQEDLKKLQLSEFFDIFEKEKVDKEALALCTDRDLQEIGIPLGPRKKILNYFSTRKNS [E3Q] reads -0.251 ± 0.078.
On to TLHEDLKKLQLSEFFDIFEKEKVDKEALALCTDRDLQEIGIPLGPRKKILNYFSTRKNS [E3H], for which the abundance fitness was -0.358 ± 0.11.
In the case of TLAEDLKKLQLSEFFDIFEKEKVDKEALALCTDRDLQEIGIPLGPRKKILNYFSTRKNS [E3A] it was -0.142 ± 0.063; in that of TLFEDLKKLQLSEFFDIFEKEKVDKEALALCTDRDLQEIGIPLGPRKKILNYFSTRKNS [E3F], -0.209 ± 0.1; in that of TLMEDLKKLQLSEFFDIFEKEKVDKEALALCTDRDLQEIGIPLGPRKKILNYFSTRKNS [E3M], -0.002 ± 0.089.
For TLREDLKKLQLSEFFDIFEKEKVDKEALALCTDRDLQEIGIPLGPRKKILNYFSTRKNS [E3R], the abundance fitness was -0.239 ± 0.049.
In the case of TLGEDLKKLQLSEFFDIFEKEKVDKEALALCTDRDLQEIGIPLGPRKKILNYFSTRKNS [E3G] it was -0.591 ± 0.057.
The result for TLVEDLKKLQLSEFFDIFEKEKVDKEALALCTDRDLQEIGIPLGPRKKILNYFSTRKNS [E3V] reads -0.454 ± 0.064; that for TLKEDLKKLQLSEFFDIFEKEKVDKEALALCTDRDLQEIGIPLGPRKKILNYFSTRKNS [E3K], 0.101 ± 0.081; that for TLPEDLKKLQLSEFFDIFEKEKVDKEALALCTDRDLQEIGIPLGPRKKILNYFSTRKNS [E3P], -0.817 ± 0.088.
The result for TLIEDLKKLQLSEFFDIFEKEKVDKEALALCTDRDLQEIGIPLGPRKKILNYFSTRKNS [E3I] reads -0.325 ± 0.14; that for TLCEDLKKLQLSEFFDIFEKEKVDKEALALCTDRDLQEIGIPLGPRKKILNYFSTRKNS [E3C], -0.748 ± 0.1.
Take TLNEDLKKLQLSEFFDIFEKEKVDKEALALCTDRDLQEIGIPLGPRKKILNYFSTRKNS [E3N]: the abundance fitness is -0.354 ± 0.12.
The result for KLEEDLKKLQLSEFFDIFEKEKVDKEALALCTDRDLQEIGIPLGPRKKILNYFSTRKNS [T1K] reads -0.425 ± 0.24.
The result for MLEEDLKKLQLSEFFDIFEKEKVDKEALALCTDRDLQEIGIPLGPRKKILNYFSTRKNS [T1M] reads -0.475 ± 0.21; that for SLEEDLKKLQLSEFFDIFEKEKVDKEALALCTDRDLQEIGIPLGPRKKILNYFSTRKNS [T1S], -0.232 ± 0.12.
The result for GLEEDLKKLQLSEFFDIFEKEKVDKEALALCTDRDLQEIGIPLGPRKKILNYFSTRKNS [T1G] reads 0.103 ± 0.13; that for ELEEDLKKLQLSEFFDIFEKEKVDKEALALCTDRDLQEIGIPLGPRKKILNYFSTRKNS [T1E], -0.042 ± 0.17; that for NLEEDLKKLQLSEFFDIFEKEKVDKEALALCTDRDLQEIGIPLGPRKKILNYFSTRKNS [T1N], 0.235 ± 0.29.
As to QLEEDLKKLQLSEFFDIFEKEKVDKEALALCTDRDLQEIGIPLGPRKKILNYFSTRKNS [T1Q], the abundance fitness is -0.506 ± 0.28.
The result for PLEEDLKKLQLSEFFDIFEKEKVDKEALALCTDRDLQEIGIPLGPRKKILNYFSTRKNS [T1P] reads -0.999 ± 0.42; that for LLEEDLKKLQLSEFFDIFEKEKVDKEALALCTDRDLQEIGIPLGPRKKILNYFSTRKNS [T1L], -0.488 ± 0.18; that for RLEEDLKKLQLSEFFDIFEKEKVDKEALALCTDRDLQEIGIPLGPRKKILNYFSTRKNS [T1R], -0.331 ± 0.16.
The result for YLEEDLKKLQLSEFFDIFEKEKVDKEALALCTDRDLQEIGIPLGPRKKILNYFSTRKNS [T1Y] reads 0.138 ± 0.38; that for VLEEDLKKLQLSEFFDIFEKEKVDKEALALCTDRDLQEIGIPLGPRKKILNYFSTRKNS [T1V], -0.44 ± 0.15; that for DLEEDLKKLQLSEFFDIFEKEKVDKEALALCTDRDLQEIGIPLGPRKKILNYFSTRKNS [T1D], 0.014 ± 0.3.
Regarding ILEEDLKKLQLSEFFDIFEKEKVDKEALALCTDRDLQEIGIPLGPRKKILNYFSTRKNS [T1I], the abundance fitness is -0.572 ± 0.21.
The result for TMEEDLKKLQLSEFFDIFEKEKVDKEALALCTDRDLQEIGIPLGPRKKILNYFSTRKNS [L2M] reads 0.041 ± 0.085; that for TEEEDLKKLQLSEFFDIFEKEKVDKEALALCTDRDLQEIGIPLGPRKKILNYFSTRKNS [L2E], -0.2 ± 0.086; that for TWEEDLKKLQLSEFFDIFEKEKVDKEALALCTDRDLQEIGIPLGPRKKILNYFSTRKNS [L2W], -0.52 ± 0.082.
Regarding THEEDLKKLQLSEFFDIFEKEKVDKEALALCTDRDLQEIGIPLGPRKKILNYFSTRKNS [L2H], the abundance fitness is -0.818 ± 0.17.
The result for TDEEDLKKLQLSEFFDIFEKEKVDKEALALCTDRDLQEIGIPLGPRKKILNYFSTRKNS [L2D] reads -0.468 ± 0.13.
In the case of TFEEDLKKLQLSEFFDIFEKEKVDKEALALCTDRDLQEIGIPLGPRKKILNYFSTRKNS [L2F] it was -0.269 ± 0.091; in that of TQEEDLKKLQLSEFFDIFEKEKVDKEALALCTDRDLQEIGIPLGPRKKILNYFSTRKNS [L2Q], -0.65 ± 0.12; in that of TPEEDLKKLQLSEFFDIFEKEKVDKEALALCTDRDLQEIGIPLGPRKKILNYFSTRKNS [L2P], -0.748 ± 0.092.
Take TYEEDLKKLQLSEFFDIFEKEKVDKEALALCTDRDLQEIGIPLGPRKKILNYFSTRKNS [L2Y]: the abundance fitness is -0.695 ± 0.13.
The result for TIEEDLKKLQLSEFFDIFEKEKVDKEALALCTDRDLQEIGIPLGPRKKILNYFSTRKNS [L2I] reads -0.017 ± 0.094; that for TKEEDLKKLQLSEFFDIFEKEKVDKEALALCTDRDLQEIGIPLGPRKKILNYFSTRKNS [L2K], -0.426 ± 0.11; that for TGEEDLKKLQLSEFFDIFEKEKVDKEALALCTDRDLQEIGIPLGPRKKILNYFSTRKNS [L2G], -0.607 ± 0.071.
With TCEEDLKKLQLSEFFDIFEKEKVDKEALALCTDRDLQEIGIPLGPRKKILNYFSTRKNS [L2C], the abundance fitness was -0.621 ± 0.089.
The result for TAEEDLKKLQLSEFFDIFEKEKVDKEALALCTDRDLQEIGIPLGPRKKILNYFSTRKNS [L2A] reads -0.609 ± 0.07.
